Results reported in article PMC4655838, “Versatility in phospho-dependent molecular recognition of the XRCC1 and XRCC4 DNA-damage scaffolds by aprataxin-family FHA domains” (DNA Repair, 2015).
Square brackets hold non-standard residues; d marks the D form. Ends that are not written are not given here. pT = C[C@@H](OP(=O)(O)O)[C@H](N)C(=O)O; pS = N[C@@H](COP(=O)(O)O)C(=O)O

B1: XRCC1 515-529 peptide phosphorylated on Ser518, Thr519 and Thr523 (peptide)
peptide: YAG[pS][pT]DEN[pT]DSEEHQ-NH2
modifications: N-terminus assumed
SMILES: C[C@H](NC(=O)[C@@H](N)Cc1ccc(O)cc1)C(=O)NCC(=O)N[C@@H](COP(=O)(O)O)C(=O)N[C@H](C(=O)N[C@@H](CC(=O)O)C(=O)N[C@@H](CCC(=O)O)C(=O)N[C@@H](CC(N)=O)C(=O)N[C@H](C(=O)N[C@@H](CC(=O)O)C(=O)N[C@@H](CO)C(=O)N[C@@H](CCC(=O)O)C(=O)N[C@@H](CCC(=O)O)C(=O)N[C@@H](Cc1c[nH]cn1)C(=O)N[C@@H](CCC(N)=O)C(N)=O)[C@@H](C)OP(=O)(O)O)[C@@H](C)OP(=O)(O)O
B2: XRCC4 229-237 peptide phosphorylated on Ser232 and Thr233 (peptide)
peptide: YDESTDEES
HELM: PEPTIDE1{Y.D.E.[O=C([C@H](COP(=O)(O)O)N[*:1])[*:2]].[C[C@@H](OP(=O)(O)O)[C@H](N[*:1])C(=O)[*:2]].D.E.E.S.[am]}$$$$V2.0; N-terminus assumed
SMILES: C[C@@H](OP(=O)(O)O)[C@H](NC(=O)[C@H](COP(=O)(O)O)NC(=O)[C@H](CCC(=O)O)NC(=O)[C@H](CC(=O)O)NC(=O)[C@@H](N)Cc1ccc(O)cc1)C(=O)N[C@@H](CC(=O)O)C(=O)N[C@@H](CCC(=O)O)C(=O)N[C@@H](CCC(=O)O)C(=O)N[C@@H](CO)C(N)=O
B3: XRCC4 229-237 peptide phosphorylated on Ser232, Thr233 and Ser237 (peptide)
peptide: YDE[pS][pT]DEE[pS]-NH2
modifications: N-terminus assumed
SMILES: C[C@@H](OP(=O)(O)O)[C@H](NC(=O)[C@H](COP(=O)(O)O)NC(=O)[C@H](CCC(=O)O)NC(=O)[C@H](CC(=O)O)NC(=O)[C@@H](N)Cc1ccc(O)cc1)C(=O)N[C@@H](CC(=O)O)C(=O)N[C@@H](CCC(=O)O)C(=O)N[C@@H](CCC(=O)O)C(=O)N[C@@H](COP(=O)(O)O)C(N)=O
B4: XRCC1 515-529 peptide phosphorylated solely on Thr523 (peptide)
peptide: YAGSTDENTDSEEHQ
HELM: PEPTIDE1{Y.A.G.S.T.D.E.N.[C[C@@H](OP(=O)(O)O)[C@H](N[*:1])C(=O)[*:2]].D.S.E.E.H.Q.[am]}$$$$V2.0; N-terminus assumed
SMILES: C[C@H](NC(=O)[C@@H](N)Cc1ccc(O)cc1)C(=O)NCC(=O)N[C@@H](CO)C(=O)N[C@H](C(=O)N[C@@H](CC(=O)O)C(=O)N[C@@H](CCC(=O)O)C(=O)N[C@@H](CC(N)=O)C(=O)N[C@H](C(=O)N[C@@H](CC(=O)O)C(=O)N[C@@H](CO)C(=O)N[C@@H](CCC(=O)O)C(=O)N[C@@H](CCC(=O)O)C(=O)N[C@@H](Cc1c[nH]cn1)C(=O)N[C@@H](CCC(N)=O)C(N)=O)[C@@H](C)OP(=O)(O)O)[C@@H](C)O
B5: XRCC1 515-529 peptide phosphorylated on Ser518 and Thr519 (peptide)
peptide: YAGSTDENTDSEEHQ
HELM: PEPTIDE1{Y.A.G.[O=C([C@H](COP(=O)(O)O)N[*:1])[*:2]].[C[C@@H](OP(=O)(O)O)[C@H](N[*:1])C(=O)[*:2]].D.E.N.T.D.S.E.E.H.Q.[am]}$$$$V2.0; N-terminus assumed
SMILES: C[C@H](NC(=O)[C@@H](N)Cc1ccc(O)cc1)C(=O)NCC(=O)N[C@@H](COP(=O)(O)O)C(=O)N[C@H](C(=O)N[C@@H](CC(=O)O)C(=O)N[C@@H](CCC(=O)O)C(=O)N[C@@H](CC(N)=O)C(=O)N[C@H](C(=O)N[C@@H](CC(=O)O)C(=O)N[C@@H](CO)C(=O)N[C@@H](CCC(=O)O)C(=O)N[C@@H](CCC(=O)O)C(=O)N[C@@H](Cc1c[nH]cn1)C(=O)N[C@@H](CCC(N)=O)C(N)=O)[C@@H](C)O)[C@@H](C)OP(=O)(O)O
B6: XRCC1 515-529 peptide phosphorylated on Thr519 (peptide)
peptide: YAGSTDENTDSEEHQ
HELM: PEPTIDE1{Y.A.G.S.[C[C@@H](OP(=O)(O)O)[C@H](N[*:1])C(=O)[*:2]].D.E.N.T.D.S.E.E.H.Q.[am]}$$$$V2.0; N-terminus assumed
SMILES: C[C@H](NC(=O)[C@@H](N)Cc1ccc(O)cc1)C(=O)NCC(=O)N[C@@H](CO)C(=O)N[C@H](C(=O)N[C@@H](CC(=O)O)C(=O)N[C@@H](CCC(=O)O)C(=O)N[C@@H](CC(N)=O)C(=O)N[C@H](C(=O)N[C@@H](CC(=O)O)C(=O)N[C@@H](CO)C(=O)N[C@@H](CCC(=O)O)C(=O)N[C@@H](CCC(=O)O)C(=O)N[C@@H](Cc1c[nH]cn1)C(=O)N[C@@H](CCC(N)=O)C(N)=O)[C@@H](C)O)[C@@H](C)OP(=O)(O)O
B7: XRCC4 229-237 peptide phosphorylated on Thr233 (peptide)
peptide: YDESTDEES
HELM: PEPTIDE1{Y.D.E.S.[C[C@@H](OP(=O)(O)O)[C@H](N[*:1])C(=O)[*:2]].D.E.E.S.[am]}$$$$V2.0; N-terminus assumed
SMILES: C[C@@H](OP(=O)(O)O)[C@H](NC(=O)[C@H](CO)NC(=O)[C@H](CCC(=O)O)NC(=O)[C@H](CC(=O)O)NC(=O)[C@@H](N)Cc1ccc(O)cc1)C(=O)N[C@@H](CC(=O)O)C(=O)N[C@@H](CCC(=O)O)C(=O)N[C@@H](CCC(=O)O)C(=O)N[C@@H](CO)C(N)=O

Legend:
[1] = biological target: aprataxin FHA domain (residues 1-105); experiment: NMR titration; unlabelled XRCC1 peptide added to 92 μM 15N-labelled aprataxin FHA domain up to 1:4; 22 °C; 20 mM Na acetate pH 5.8, 50 mM NaCl, 2 mM DTT; SOFAST-HMQC; apparent Kd, mean of the fits for D37, V45, Q46, V61 and V63
[2] = biological target: aprataxin FHA domain K38A (residues 1-105); experiment: ITC; peptide injected (30 x 10 ul) into FHA domain in the cell; 22 °C; 50 mM HEPES pH 7.5, 150 mM NaCl, 5 mM β-mercaptoethanol; XRCC1 peptides 1 mM into 100 μM protein, XRCC4 peptides 300 μM into 30 μM protein; single-site binding model
[3] = biological target: aprataxin FHA domain (residues 1-105); experiment: as above

Row | Binder | Kd [1] [µM] | fold decrease in binding relative to the wild-type [2] [fold] | fold increase in binding over the di-phosphorylated peptide [3] [fold] | fold preference over the mono-phosphorylated (pT233) XRCC4 peptide [3] [fold] | fold increase in binding over the mono-phosphorylated peptide [3] [fold] | fold tighter binding than the XRCC1 pThr519 peptide [3] [fold]
1 | B1 | < 1 | 8.8 | 3 | 5 | – | –
2 | B2 | – | 7.6 | – | – | 8 | –
3 | B3 | – | 9.3 | – | – | – | –
4 | B4 | 7 | – | – | – | – | –
5 | B5 | 2 | 8.5 | – | – | 11 | –
6 | B6 | 7 | 2.7 | – | – | – | –
7 | B7 | – | 3.2 | – | – | – | 8
